In US20180346588A1:

Target: human mesothelin (MSLN) on the cell surface (human) (UniProt Q13421)
Test: FACS on MiaPaCa-MSLN #2 cells, upper histogram and table

human mesothelin (MSLN) on the cell surface (human), sequence (Q13421 other isoform, or with tags, fused parts or gaps limits assumed): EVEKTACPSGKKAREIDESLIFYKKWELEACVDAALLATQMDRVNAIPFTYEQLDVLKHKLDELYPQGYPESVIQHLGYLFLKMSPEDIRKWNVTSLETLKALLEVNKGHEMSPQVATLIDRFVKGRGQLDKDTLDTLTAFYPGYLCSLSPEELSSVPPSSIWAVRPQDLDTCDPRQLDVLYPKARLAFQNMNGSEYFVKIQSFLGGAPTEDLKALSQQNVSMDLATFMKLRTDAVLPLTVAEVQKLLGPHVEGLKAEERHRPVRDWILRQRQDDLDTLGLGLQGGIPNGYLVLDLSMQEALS

Mean, FL2-H: 2710
B1: BAY94-9343 (antibody, INN chains, looked up, V domains shown)
VH: QVELVQSGAEVKKPGESLKISCKGSGYSFTSYWIGWVRQAPGKGLEWMGIIDPGDSRTRYSPSFQGQVTISADKSISTAYLQWSSLKASDTAMYYCARGQLYGGTYMDGWGQGTLVTVSS
VL: DIALTQPASVSGSPGQSITISCTGTSSDIGGYNSVSWYQQHPGKAPKLMIYGVNNRPSGVSNRFSGSKSGNTASLTISGLQAEDEADYYCSSYDIESATPVFGGGTKLTVL
modifications: ravtansine (DM4) payload
